Experimental data published in paper PMC12098869, “An mRNA-display derived cyclic peptide scaffold reveals the substrate binding interactions of an N-terminal cysteine oxidase” (Nature Communications, 2025).

Experiments:
Experiment in all cases: SPR; multi-cycle, equilibrium steady state affinity 1:1 binding model; biotinylated ADO or variant immobilised on a Biotin CAP chip (~2500-3000 RU), peptide injected; 4 °C; 20 mM HEPES pH 7.5, 500 mM NaCl, 10 mM DTT, 0.1% (v/v) tween-20; 50 μL/minute
Conditions in all cases: both partners purified
[1] = target: T1, ADO-C220A, biotinylated (pQE80L-Navi-ADO) (human, UniProt Q96SZ5 1-270, C220A, biotin on the Avi tag)
T1 construct: Tag as in Dm1; source: E. coli Rosetta2(DE3), purified (Ni-NTA, SEC); not shown: Avi tag, N-terminal, kept; His6, N-terminal, kept
T1 sequence (looked up): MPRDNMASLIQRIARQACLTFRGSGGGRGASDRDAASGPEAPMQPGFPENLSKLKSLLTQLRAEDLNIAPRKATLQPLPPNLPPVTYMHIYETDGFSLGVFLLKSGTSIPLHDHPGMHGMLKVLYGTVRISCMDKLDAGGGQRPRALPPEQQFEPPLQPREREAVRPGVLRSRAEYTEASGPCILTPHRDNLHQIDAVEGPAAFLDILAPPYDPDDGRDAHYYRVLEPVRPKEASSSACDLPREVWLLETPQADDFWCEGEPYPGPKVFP
How it was run: (§1)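 Biotinylated full-length human ADO (wild type or engineered forms) was made in E. coli with a His tag, then purified by nickel affinity and gel filtration. It was captured on a Biotin CAP chip at about 2500–3000 RU in a Biacore T200, and peptides were flowed over it. The run was at 4 °C in HEPES pH 7.5 buffer with 500 mM NaCl, DTT and tween-20, at 50 μL/minute. Kd came from a 1:1 steady-state fit of multi-cycle equilibrium responses.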

[2] = target: T2, ADO-Y222A, biotinylated (pQE80L-Navi-ADO) (human, UniProt Q96SZ5 1-270, Y222A, biotin on the Avi tag)
T2 construct: Tag as in Dm1; source: E. coli Rosetta2(DE3), purified (Ni-NTA, SEC); not shown: Avi tag, N-terminal, kept; His6, N-terminal, kept
T2 sequence (looked up): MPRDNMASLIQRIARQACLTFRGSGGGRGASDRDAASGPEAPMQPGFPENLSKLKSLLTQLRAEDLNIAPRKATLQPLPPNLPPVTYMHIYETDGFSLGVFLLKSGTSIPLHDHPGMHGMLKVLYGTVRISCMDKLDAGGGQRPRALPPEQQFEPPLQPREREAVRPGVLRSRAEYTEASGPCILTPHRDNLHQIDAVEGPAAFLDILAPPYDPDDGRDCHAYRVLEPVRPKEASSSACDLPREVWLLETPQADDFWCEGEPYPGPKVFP
How it was run: as §1

[3] = target: T3, ADO-Y87A, biotinylated (pQE80L-Navi-ADO) (human, UniProt Q96SZ5 1-270, Y87A, biotin on the Avi tag)
T3 construct: Tag as in Dm1; source: E. coli Rosetta2(DE3), purified (Ni-NTA, SEC); not shown: Avi tag, N-terminal, kept; His6, N-terminal, kept
T3 sequence (looked up): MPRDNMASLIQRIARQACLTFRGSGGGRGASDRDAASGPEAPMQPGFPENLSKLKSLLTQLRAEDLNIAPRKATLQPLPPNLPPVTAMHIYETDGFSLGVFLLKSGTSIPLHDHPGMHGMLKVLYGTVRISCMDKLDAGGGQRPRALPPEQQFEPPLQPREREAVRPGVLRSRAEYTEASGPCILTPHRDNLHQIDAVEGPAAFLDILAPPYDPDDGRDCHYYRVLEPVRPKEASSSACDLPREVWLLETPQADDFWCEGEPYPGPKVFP
How it was run: as §1

[4] = target: T4, ADO-Y87F, biotinylated (pQE80L-Navi-ADO) (human, UniProt Q96SZ5 1-270, Y87F, biotin on the Avi tag)
T4 construct: Tag as in Dm1; source: E. coli Rosetta2(DE3), purified (Ni-NTA, SEC); not shown: Avi tag, N-terminal, kept; His6, N-terminal, kept
T4 sequence (looked up): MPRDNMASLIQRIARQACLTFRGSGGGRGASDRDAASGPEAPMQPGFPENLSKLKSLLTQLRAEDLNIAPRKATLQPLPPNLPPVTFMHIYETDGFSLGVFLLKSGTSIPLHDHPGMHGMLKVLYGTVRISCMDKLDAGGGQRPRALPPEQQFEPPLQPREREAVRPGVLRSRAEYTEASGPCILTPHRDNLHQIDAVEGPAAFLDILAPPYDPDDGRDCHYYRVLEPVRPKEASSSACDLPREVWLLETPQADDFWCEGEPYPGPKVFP
How it was run: as §1

[5] = target: T5, ADO-I109A, biotinylated (pQE80L-Navi-ADO) (human, UniProt Q96SZ5 1-270, I109A, biotin on the Avi tag)
T5 construct: Tag as in Dm1; source: E. coli Rosetta2(DE3), purified (Ni-NTA, SEC); not shown: Avi tag, N-terminal, kept; His6, N-terminal, kept
T5 sequence (looked up): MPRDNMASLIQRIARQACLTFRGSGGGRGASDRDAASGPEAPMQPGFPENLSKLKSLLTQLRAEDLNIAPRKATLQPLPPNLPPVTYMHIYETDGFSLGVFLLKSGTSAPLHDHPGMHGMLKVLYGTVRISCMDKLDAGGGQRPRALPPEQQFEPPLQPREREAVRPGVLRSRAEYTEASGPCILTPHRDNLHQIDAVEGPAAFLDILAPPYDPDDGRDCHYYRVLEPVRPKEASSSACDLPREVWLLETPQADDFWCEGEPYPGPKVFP
How it was run: as §1

B1: RGS5_(2-15), synthetic peptide corresponding to the methionine excised N-terminus of RGS5, residues 2 to 15 (peptide, UniProt O15539 2-15, looked up)
peptide: CKGLAALPHSCLER
notes: Regulator of G-protein signalling 5 (RGS5), residues 2 to 15, N-terminal Cys; also called RGS5 peptide; source: synthetic peptide
Kd [1]: 1.1 µM | Kd [2]: 4.7 µM | Kd [3]: 1.7 µM | Kd [4]: 0.34 µM | Kd [5]: 1.3 µM

B2: IL32_(2-15), synthetic peptide corresponding to the methionine excised N-terminus of IL32, residues 2-15 (peptide, UniProt P24001 2-15, looked up)
peptide: CFPKVLSDDMKKLK
notes: Interleukin 32 (IL32), residues 2-15, N-terminal Cys; also called IL32 peptide; source: synthetic peptide
Kd [1]: 1.3 µM | Kd [2]: 1 µM | Kd [3]: 4.2 µM | Kd [4]: 0.32 µM | Kd [5]: 16 µM
